# Results reported in publication PMC2819989.
# Target: RhiG-C-His (Bacillus subtilis ATCC6633)
# Assay: SEC
substance,measurement,value
RhiG-C-His (enzyme),stoichiometry N,2
